Experimental findings from article PMC6431053, “Enzyme kinetics of dUTPase from the planarian Dugesia ryukyuensis” (BMC Research Notes, 2019) are described below.

Substrate in data set [1]: O=c1ccn([C@H]2C[C@H](O)[C@@H](COP(=O)(O)OP(=O)(O)OP(=O)(O)O)O2)c(=O)[nH]1
Description: purified protein. It is filed as biochemical, Dugesia ryukyuensis. Particulars: 5 mM MgCl2, 100 mM KCl, 0.25 mM Bicine, pH 8.2, 25 °C, 10 µM dUTP, n = 7, kcat assumes three active sites per trimer, 25.0 °C.

Substrate in data set [2]: Cc1cn([C@H]2C[C@H](O)[C@@H](COP(=O)(O)OP(=O)(O)OP(=O)(O)O)O2)c(=O)[nH]c1=O
Kind of data set: purified protein. It is filed as biochemical, Dugesia ryukyuensis. Particulars: 5 mM MgCl2, 100 mM KCl, 0.25 mM Bicine, pH 8.2, 100 µM nucleotide, 4–6 µM enzyme, n = 3.

B1: Dr-dUTPase (Dugesia ryukyuensis; R66K) (protein)
chain: MSALKVLRFKKLSENATVPSRGSVLAAGFDLCSAENCVIPARGKQLVKTDIQISLPEGCYGRVAPKSGLALKHFIDVGAGVIDQDYRGNVGIVMFNFSENEFPISKGDRIAQLICERIYTPELLECESLDETERGEGGYGSTGINNSSQKNGH
notes: full-length 153 aa ORF, codon-optimized, pET-15b, E. coli BL21(DE3); His-tag cut by thrombin, N-terminal GSH left; 156 aa, 16,807 Da; R66K (G197A) removes internal thrombin site
Regarding B1, in the data set “purified protein [1]”, the Km (usually the substrate concentration at which the rate is half of its maximum) is 4.0 ± 0.4 µM; the kcat (in general, the maximal rate divided by the concentration of active sites) is 34 s⁻¹; the kcat/Km (in general, the turnover number divided by the Michaelis constant) is 8.5e+06 ± 1.1e+06 M⁻¹ s⁻¹. In addition, in “purified protein [2]”, the Km was 1.1 × 10^2 ± 7.2 μM, the kcat worked out at 1.4 ± 0.3 s⁻¹ and the kcat/Km is 13000 ± 2800 M⁻¹ s⁻¹.
